Consider one molecule from paper PMC10520629.

Assay [1] deals with T1, full-length human HACE1 (HECT domain and Ankyrin repeat containing E3 Ubiquitin Protein Ligase 1), wild type, aa 1-909 (human), Q8IYU2.
T1 chain: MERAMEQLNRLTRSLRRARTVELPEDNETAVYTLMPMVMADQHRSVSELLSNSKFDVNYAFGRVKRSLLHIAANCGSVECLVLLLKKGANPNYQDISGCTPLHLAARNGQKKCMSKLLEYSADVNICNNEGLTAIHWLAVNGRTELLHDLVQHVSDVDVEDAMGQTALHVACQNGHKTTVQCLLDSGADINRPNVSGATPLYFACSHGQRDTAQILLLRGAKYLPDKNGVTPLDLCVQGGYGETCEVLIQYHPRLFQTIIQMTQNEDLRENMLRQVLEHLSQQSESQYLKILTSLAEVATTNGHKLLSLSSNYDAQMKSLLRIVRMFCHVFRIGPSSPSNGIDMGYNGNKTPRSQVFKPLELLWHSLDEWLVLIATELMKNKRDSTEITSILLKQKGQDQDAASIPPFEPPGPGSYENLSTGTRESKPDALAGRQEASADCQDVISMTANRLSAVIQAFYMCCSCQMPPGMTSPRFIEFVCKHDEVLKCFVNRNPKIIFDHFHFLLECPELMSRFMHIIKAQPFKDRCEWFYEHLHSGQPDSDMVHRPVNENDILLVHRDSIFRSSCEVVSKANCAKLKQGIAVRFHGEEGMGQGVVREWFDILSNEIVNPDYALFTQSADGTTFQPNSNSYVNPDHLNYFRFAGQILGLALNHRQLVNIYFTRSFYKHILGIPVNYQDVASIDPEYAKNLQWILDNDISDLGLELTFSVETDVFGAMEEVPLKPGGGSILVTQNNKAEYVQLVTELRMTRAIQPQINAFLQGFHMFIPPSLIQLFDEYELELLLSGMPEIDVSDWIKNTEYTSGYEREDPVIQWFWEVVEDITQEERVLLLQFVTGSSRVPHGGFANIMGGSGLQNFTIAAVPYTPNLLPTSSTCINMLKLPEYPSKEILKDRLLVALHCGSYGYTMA
In words: AUC; sedimentation velocity, 40 000 rpm, 20 °C, continuous c(s) distribution model. The settings on record: remark: other sources report otherwise.

Assay [2] deals with T1, full-length human HACE1 (HECT domain …). In words: SEC; gel filtration of purified full-length HACE1 (Superdex; 20 mM HEPES pH 8.0, 150 mM NaCl, 5% glycerol, 1 mM DTT). As to conditions: remark: other sources report otherwise.

For orientation: stoichiometry N means a count of units in the complex or per binding partner.

B1: full-length human HACE1 (HECT domain and Ankyrin repeat containing E3 Ubiquitin Protein Ligase 1), wild type, aa 1-909, Q8IYU2 1-909 (enzyme)
chain: T1 chain
The molecule B1 registered a percent of molecules as dimer or higher oligomers in assay [1] of 79%. Besides, the stoichiometry N in assay [2] turned out to be 2.
